In US20230041134A1 (Genentech, published 2023):

How the values were obtained:
[1] = target: T1, Her2 extracellular domain (Her2 ECD) (human, UniProt P04626 23-652); test: SPR (BIAcore T100), IgG, 1:1 Langmuir fit
T1 construct: For the crystal structure it was expressed in CHO cells and the complex was enzymatically deglycosylated; also called biotinylated Her2 ECD
Method: (§1) The affinity of each 7C2 IgG variant for Her2 was determined by surface plasmon resonance using a BIAcoreT100. Biacore Series S CMS sensor chips were immobilized with monoclonal mouse anti-human IgG (Fc) antibody (Human antibody capture kit, GE Healthcare). Serial 3-fold dilutions of each 7C2 variant were injected at a flow rate of 30 μl/min. Each sample was analyzed with 3-minute association and 10-minute dissociation. After each injection the chip was regenerated using 3 M MgCl₂. Binding response was corrected by subtracting the RU from a flow cell capturing an irrelevant IgG at similar density. A 1:1 Languir model of simultaneous fitting of kₒₙ and koff was used for kinetics analysis.

[2] = target: T1, Her2 extracellular domain (Her2 ECD); test: SPR (BIAcore T100), IgG on anti-human IgG (Fc) capture chip, Her2 ECD, 1:1 Langmuir fit
Method: as §1

[3] = target: T1, Her2 extracellular domain (Her2 ECD); test: SPR (BIAcore T100), IgG, 1:1 Langmuir fit; remark: listed apart in the source
Method: as §1

Binder | Kd [2] | Kd [3] | other results
7C2.v2.1 (antibody, V domains shown, Expressed as IgG for SPR; also called hu7C2.v2.1) VH: EVQLVQSGAEVKKPGASVKVSCKASGYSFTGYWMNWVRQAPGQGLEWIGMIHPSDSEIRANQKFRDRVTITRDTSTSTAYLELSSLRSEDTAVYYCARGTYDGGFEYWGQGTLVTVSS VL: DIVMTQSPDSLAVSLGERATINCRASQSVSGSRFTYMHWYQQKPGQPPKLLIKYASILESGVPDRFSGSGSGTDFTLTISSLQAEDVAVYYCQHSWEIPPWTFGQGTKVEIK | 16 nM | – | Kd [1]: 15.5 nM; koff [1]: 0.0041 s⁻¹; kon [1]: 260000 M⁻¹ s⁻¹
7C2.v1.3 (antibody, V domains shown) VH: EVQLVQSGAEVKKPGASVKVSCKASGYSFTGYWMNWLRQAPGQGLEWIGMIHPSDSEIRANQKFRDRATLTVDKSTSTAYLELSSLRSEDTAVYYCARGTYDGGFEYWGQGTLVTVSS VL: DIVMTQSPDSLAVSLGERATINCRASQSVSGSRFTYMHWYQQKPGQPPKLLIYYASILESGVPDRFSGSGSGTDFTLTISSLQAEDVAVYYCQHSWEIPPWTFGQGTKVEIK | 11 nM | – | –
hu7C2.v2.2.LA (antibody, human IgG1, kappa, V domains shown, IgG1 kappa; Measured as IgG by SPR; also called humanized 7C2.v2.2.LA; hu7C2.v2.2.LA (S53L, S55A)) VH: EVQLVQSGAEVKKPGASVKVSCKASGYSFTGYWMNWVRQAPGQGLEWIGMIHPLDAEIRANQKFRDRVTITVDTSTSTAYLELSSLRSEDTAVYYCARGTYDGGFEYWGQGTLVTVSS VL: DIVMTQSPDSLAVSLGERATINCRASQSVSGSRFTYMHWYQQKPGQPPKLLIKYASILESGVPDRFSGSGSGTDFTLTISSLQAEDVAVYYCQHSWEIPPWTFGQGTKVEIKR | – | 3 nM | –
7C2.v2.3 (antibody, V domains shown) VH: EVQLVQSGAEVKKPGASVKVSCKASGYSFTGYWMNWLRQAPGQGLEWIGMIHPSDSEIRANQKFRDRATLTVDKSTSTAYLELSSLRSEDTAVYYCARGTYDGGFEYWGQGTLVTVSS VL: DIVMTQSPDSLAVSLGERATINCRASQSVSGSRFTYMHWYQQKPGQPPKLLIKYASILESGVPDRFSGSGSGTDFTLTISSLQAEDVAVYYCQHSWEIPPWTFGQGTKVEIK | 10 nM | – | –
7C2.v1.2 (antibody, V domains shown) VH: EVQLVQSGAEVKKPGASVKVSCKASGYSFTGYWMNWVRQAPGQGLEWIGMIHPSDSEIRANQKFRDRVTITVDTSTSTAYLELSSLRSEDTAVYYCARGTYDGGFEYWGQGTLVTVSS VL: DIVMTQSPDSLAVSLGERATINCRASQSVSGSRFTYMHWYQQKPGQPPKLLIYYASILESGVPDRFSGSGSGTDFTLTISSLQAEDVAVYYCQHSWEIPPWTFGQGTKVEIK | 13 nM | – | –

Further lines, with some results ahead:

Kd [2] | Kd [3] | Binder | other results
9 nM | – | 7C2.v3.3 (antibody, V domains shown) VH: EVQLVQSGAEVKKPGASVKVSCKASGYSFTGYWMNWLRQAPGQGLEWIGMIHPSDSEIRANQKFRDRATLTVDKSTSTAYLELSSLRSEDTAVYYCARGTYDGGFEYWGQGTLVTVSS VL: DIVLTQSPDSLAVSLGERATINCRASQSVSGSRFTYMHWYQQKPGQPPKLLIKYASILESGVPDRFSGSGSGTDFTLTISSLQAEDVAVYYCQHSWEIPPWTFGQGTKVEIK | –
11 nM | 11 nM | hu7C2.v2.2 (antibody, V domains shown, Expressed as IgG; It is the parent of hu7C2.v2.2.LA, which adds S53L and S55A in HVR-H2) VH: EVQLVQSGAEVKKPGASVKVSCKASGYSFTGYWMNWVRQAPGQGLEWIGMIHPSDSEIRANQKFRDRVTITVDTSTSTAYLELSSLRSEDTAVYYCARGTYDGGFEYWGQGTLVTVSS VL: DIVMTQSPDSLAVSLGERATINCRASQSVSGSRFTYMHWYQQKPGQPPKLLIKYASILESGVPDRFSGSGSGTDFTLTISSLQAEDVAVYYCQHSWEIPPWTFGQGTKVEIK | –
15 nM | – | 7C2.v3.1 (antibody, V domains shown, Expressed as IgG) VH: EVQLVQSGAEVKKPGASVKVSCKASGYSFTGYWMNWVRQAPGQGLEWIGMIHPSDSEIRANQKFRDRVTITRDTSTSTAYLELSSLRSEDTAVYYCARGTYDGGFEYWGQGTLVTVSS VL: DIVLTQSPDSLAVSLGERATINCRASQSVSGSRFTYMHWYQQKPGQPPKLLIKYASILESGVPDRFSGSGSGTDFTLTISSLQAEDVAVYYCQHSWEIPPWTFGQGTKVEIK | –
– | 8 nM | mu7C2.B9 (antibody, V domains shown, Assessed as IgG by SPR on an anti-human IgG (Fc) capture chip; also called murine 7C2.B9; chimeric mu7C2.B9) VH: QVQLQQPGAELVRPGASVKLSCKASGYSFTGYWMNWLKQRPGQGLEWIGMIHPSDSEIRANQKFRDKATLTVDKSSTTAYMQLSSPTSEDSAVYYCARGTYDGGFEYWGQGTTLTVSS VL: DIVLTQSPASLVVSLGQRATISCRASQSVSGSRFTYMHWYQQKPGQPPKLLIKYASILESGVPARFSGGGSGTDFTLNIHPVEEDDTATYYCQHSWEIPPWTFGGGTKLEIK | –
